Experimental data as given in patent US9487562B2, “Stabilized polypeptides as regulators of RAB GTPase function” (President and Fellows of Harvard College, priority 2011, dated 2016).
Entries after “also recorded” stand apart in the source; their conditions may differ. Bridge positions count the residues as written; N and C are the ends. Square brackets hold non-standard residues; d marks the D form. Ends that are not written are not given here. S5 = C=CCCC[C@](C)(N)C(=O)O

B1: FIP3 protein: expressed FIP3 protein (652-756), soluble competitor in … (protein, UniProt O75154 652-756, looked up, fragment)
chain: QEYHSRARESELEQEVRRLKQDNRNLKEQNEELNGQIITLSIQGAKSLFSTAFSESLAAEISSVSRDELMEAIQKQEEINFRLQDYIDRIIVAIMETNPSILEVK
modifications: GST tag

Legend:
RAB11 [1] = molecular target: T1, RAB11 (Homo sapiens, UniProt P62491); assay: Fluorescence polarization binding of FITC-FIP/FITC-RFP peptides to RAB11; settings: FITC peptide 15 nM, fluorescence polarization
T1 construct: RAB11 (residues 1-175) was expressed with an N-terminal GST-tag with an internal thrombin cleavage site; GST (thrombin cleavage site between tag and RAB11) (N); made in house; host or cells: Escherichia coli BL21(DE3) pLysS
T1 sequence (P62491 1-175): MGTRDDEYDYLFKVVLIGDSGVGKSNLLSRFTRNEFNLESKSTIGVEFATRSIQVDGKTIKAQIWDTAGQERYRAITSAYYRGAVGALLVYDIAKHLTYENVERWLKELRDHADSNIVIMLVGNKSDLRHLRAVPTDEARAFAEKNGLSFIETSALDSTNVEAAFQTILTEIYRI
Method: Fluorescence polarization (FP) was used to measure FIP peptide binding to RAB11 and RAB25 proteins. […] This indicated specificity in the binding measurement, as this subtle change would be expected to perturb binding.
(§1) RAB11/25 protein binding assays were performed by incubating FITC-FIP or FITC-RFP (stapled FIP derivatives) peptides (15 nM) with three-fold dilutions of recombinantly-expressed, purified RAB11, RAB25 or a various epitope-tagged version of either in protein-binding buffer (25 mM Tris-HCl, pH 8.0, 150 mM NaCl, 1 mM EDTA, 1 mM DTT, 10 mM MgCl2, 10 mM GTP). Dilutions and incubations were made in 384-well, black flat-bottom plates (Corning) to a total volume of 40 μL and equilibrated for 60 minutes. Polarization was measured on a Spectramax-M5 multi-label plate reader with λex=485 nm and λem=525 nm. Polarization was calculated according to the standard equation: P=(V−H)/(V+H), where P=polarization, V=vertical emission intensity and H=horizontal emission intensity. Kd values were determined by fitting data to a variable-slope sigmoidal binding curve using Prizm 4 graphing software.
(§2) RAB11 and RAB25 proteins were expressed and purified in Escherichia coli strain BL21(DE3) pLysS (Stratagene) as epitope-tagged fusion proteins in various vectors (Novagen). RAB25 (residues E7-Q180) was expressed with an N-terminal GST- and hexahistidine tag with internal thrombin and TEV cleavage sites (GST-H6-RAB25) (SEQ ID NO: 86) in a pET41-1 vector (Novagen) or with an N-terminal hexahistidine tag alone with an internal thrombin cleavage site (H6-RAB25) (SEQ ID NO: 86) in a pET28 vector (Novagen). FIP3 protein (residues 649-756) was expressed with an N-terminal GST-tag with an internal TEV cleavage site (GST-FIP3) in a pGEX6p-1 vector (Novagen). RAB11 (residues 1-175) was expressed with an N-terminal GST-tag with an internal thrombin cleavage site in a pGEX5x-1 vector (Novagen). Transformed bacteria was grown at 37° C. until an OD600=0.8 was reached, at which point the culture was induced with 0.5 mM isopropyl β-D-1-thiogalactopyranoside (IPTG). Induced cells were grown at 30° C. for 6 hours, pelleted and lysed in binding buffer (25 mM Tris-HC;, pH 8.0, 150 mM NaCl, 1 mM EDTA, 1 mM DTT, 10 mM MgCl2, 10 mM GTP) supplemented with a complete protease inhibitor tablet (Roche) by sonication on ice. The lysate was centrifuged at 14,000 rpm to clear insoluble matter prior to loading onto Ni-NTA resin (Qiagen) for hexahistdine-tagged constructs or on GST-bind agarose resin (Biorad) for GST-tagged constructs. The protein-bound bead slurry was washed 4× with ˜20 mL of buffer and retained protein was eluted with either 250 mM imidazole or 20 mM glutathione in buffer for H6-(SEQ ID NO: 86) or GST-proteins, respectively. The eluent was concentrated using a 30 kD exclusion filter and purified by size-exclusion chromatography on a Superdex-75 Column (Amersham Pharmacia Biotech). Fractions containing purified protein were pooled, concentrated and dialyzed into binding buffer or other similar buffer for specific biochemical assays.

RAB25 [2] = molecular target: T2, RAB25 (Homo sapiens, UniProt P57735); assay: Fluorescence polarization binding of FITC-FIP/FITC-RFP peptides to RAB25; settings: FITC peptide 15 nM
T2 construct: RAB25 (residues E7-Q180) was expressed with an N-terminal GST- and hexahistidine tag; made in house; host or cells: Escherichia coli BL21(DE3) pLysS
T2 sequence (P57735 7-180): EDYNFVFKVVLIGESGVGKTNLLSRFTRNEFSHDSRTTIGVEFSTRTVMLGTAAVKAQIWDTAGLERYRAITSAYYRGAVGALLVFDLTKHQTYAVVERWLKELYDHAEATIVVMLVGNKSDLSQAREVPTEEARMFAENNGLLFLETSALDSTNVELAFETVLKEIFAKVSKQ
Method: as §1, §2

[3] = Circular dichroism spectra / percent helicity; type: physicochemical; settings: calculated from the absorbance at 222 nm
Method: We next investigated the structural stability of the RFPs by obtaining circular dichroism (CD) spectra for each peptide. All measurements were made at 20° C. in water with peptides at 50 μM. […] By comparison, stapled FIP peptides (RFPs) show helical CD spectra indicated by minima at approximately 208 and 222 nm (FIG. 11B).
A circular dichroism spectrometer (Jasco J-710, Japan) was used to determine the α-helical content of all peptides. Peptides were dissolved in water to a final concentration of 50 μM in a quartz cuvette with a path length of 1 cm. Absorbance values were taken at 1 nm intervals between 190 and 260 nm for buffer alone and for peptide solutions. The background (buffer) spectrum was subtracted from experimental spectra, which were subsequently subjected to baseline-normalization and curve-smoothing within the spectrometer software. Percent-helicity was calculated from the absorbance at 222 nm using helical models as previously reported in Chen Y H et al., Biochemistry, 13, 3350-9 (1974).

[4] = Peptide thermal stability by CD at 222 nm; type: physicochemical; settings: CD at 222 nm over 10-90° C.
Method: Peptide thermal stability was measured by scanning the peptide CD at 222 nm over a temperature range (10-90° C.). A sigmoidal unfolding curve was apparent for helices of unmodified FIP peptides (FIP4) with a Tm of ˜34° C. (FIG. 12A).
Peptide thermal stability experiments were performed in a similar manner to circular dichroism experiments in Example 5. Peptide solutions were cooled to 10° C. in a temperature controlled CD-chamber and circular dichroism absorbance at 222 nm was measured at 1 degree intervals while the solution was heated to 90° C. 222 nm CD values were plotted as a function of temperature and fitted to a sigmoidal denaturation curve, with the half-maximal temperature representing the Tm.

U2OS osteosarcoma cells = assay: Quantitative epifluorescence microscopy of cell penetration; type: cell-based; settings: 5 μM FITC-RFPs for 12 hours, DMEM 10% FBS
Method: U2OS osteosarcoma cells were treated with 5 μM FITC-RFPs for 12 hours in Dulbecco's Modified Eagle Medium (DMEM) (Gibco®) containing 10% fetal bovine serum (FBS). Cells were washed, then stained with Hoescht nuclear dye. Automated fluorescence microscopy was performed at 20× on an IX5000 epifluorescence microscope. Nuclear staining is shown in the top panel and FITC is show in the bottom panel (FIGS. 16 and 17B). Quantification was performed using MetaXpress software (FIG. 18A).

RAB25 [5] = assay: Fluorescence polarization binding of FITC-FIP/FITC-RFP peptides to RAB25
Method: as §1, §2

RAB11 [6] = molecular target: T3, RAB11 (Homo sapiens, UniProt P62491); assay: Biotin-RFP pulldown from OVCAR3 lysate, Western blot for RAB11; type: binding; settings: relative to mock or negative control RFP31
T3 construct: incubated in pre-cleared lysate from OVCAR3 cells, which express RAB11 and RAB25; endogenous in cells; host or cells: OVCAR3
T3 sequence (P62491 1-216): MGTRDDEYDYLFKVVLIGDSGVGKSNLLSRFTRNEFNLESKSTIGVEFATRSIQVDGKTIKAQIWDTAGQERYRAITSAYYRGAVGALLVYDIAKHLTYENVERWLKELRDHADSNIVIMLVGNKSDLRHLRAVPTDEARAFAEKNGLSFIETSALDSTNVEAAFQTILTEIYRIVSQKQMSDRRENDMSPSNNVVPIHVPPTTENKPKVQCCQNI
Method: (§3) Optimized RFP peptides were synthesized with an amino-terminal diethyleneglycol-biotin moiety. The peptides were immobilized on streptavidin-agarose resin/beads and incubated in pre-cleared lysate from OVCAR3 cells, which express RAB11 and RAB25. The beads were washed, and the protein was eluted and used for Western blot analysis to identify retained RAB11 and RAB25 (FIG. 24). […] The signal is similar to the relative binding affinities and ALPHASCREEN® IC50 observed for RFP peptides.

RAB25 [7] = molecular target: T4, RAB25 (Homo sapiens, UniProt P57735); assay: Biotin-RFP pulldown from OVCAR3 lysate, Western blot for RAB25; type: binding; settings: relative to mock or negative control RFP31
T4 construct: incubated in pre-cleared lysate from OVCAR3 cells, which express RAB11 and RAB25; endogenous in cells; host or cells: OVCAR3
T4 sequence (P57735 1-213): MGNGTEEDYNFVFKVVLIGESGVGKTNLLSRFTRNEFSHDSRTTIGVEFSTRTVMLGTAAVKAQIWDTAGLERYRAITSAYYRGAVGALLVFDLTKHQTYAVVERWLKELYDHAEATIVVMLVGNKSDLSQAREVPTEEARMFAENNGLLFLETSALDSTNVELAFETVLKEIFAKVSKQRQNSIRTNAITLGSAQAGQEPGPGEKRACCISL
Method: as §3

[8] = tested on: AKT phosphorylated at S473 (p473-AKT); assay: AKT phosphorylation at S473 in OVCAR3 cells (Western blot); type: cell-based, Human; set-up: dose or concentration left out as unconfirmed; settings: OVCAR3 cells treated with RFP26 for 24 hours
From the text: AKT, also known as Protein Kinase B (PKB), is a serine/threonine-specific protein kinase that is associated with tumor cell survival, proliferation, and invasiveness. The activation of AKT is also one of the most frequent alterations observed in human cancer and tumor cells, thus deregulation of the AKT plays a pivotal role in tumor biology (Stuenaes et al., Br. J. Pharmacol. (2010) 160(1):116-29). Full AKT activation requires phosphorylation by activating kinases on two residues: threonine 308 (T308) and serine 473 (S473). Hyperactivation of AKT is associated with resistance to apoptosis as well as increased cell proliferation and metabolism. […] To assess the affect of RFP26 on AKT phosphorylation in OVCAR3 cells, OVCAR3 cells were treated with […] RFP26 for 24 hours. The cells were then lysed, and the lysate was used in a Western blot to detect AKT phosphorylated at S473 (p473-AKT) and total AKT (FIG. 25A).

OVCAR3 cells = assay: Transwell migration assay; type: cell-based, Human; settings: 15 μM for 24 hours, collagen-coated 8-micron transwells
Method: OVCAR3 cells were seeded on collagen-coated, 8-micron transwells in DMEM media. Cells were treated with 15 μM RFP26, RFP31 or vehicle for 24 hours during cell migration. The cells in the wells were fixed, and migrating cells were stained and counted (FIGS. 25B and 25C).

GST-H6-RAB25 = molecular target: T5, GST-H6-RAB25 (Homo sapiens, UniProt P57735); assay: ALPHASCREEN competition assay (biotin-RFP14 / GST-H6-RAB25 complex); type: binding; settings: competitor added to pre-formed biotin-RFP14/GST-H6-RAB25 complex
T5 construct: RAB25 (residues E7-Q180) was expressed with an N-terminal GST- and hexahistidine tag; made in house; host or cells: Escherichia coli BL21(DE3) pLysS
T5 sequence (P57735 7-180): T2 sequence (P57735 7-180)
From the text: A nano-bead based […] assay (ALPHASCREEN®) was used to qualitatively assess protein binding (peptide-RAB or protein-RAB association) and quantitatively assess inhibitor ranking (competition assays). […] FIG. 13B schematizes the ALPHASCREEN® (binding) strategy. If an RFP (or FIP protein/peptide) conjugated to biotin (bound to a donor bead, in this case streptavidin) interacts with RAB conjugated to GST (bound to an acceptor bead, in this case, anti-GST), there is a proximity-dependent transfer of chemical energy, resulting in light production.
For competition assays, complexes consisting of biotin-FIP and GST-RAB proteins or biotin-RFP and GST-RAB peptides with free RFPs, unmodified peptides, and FIP proteins were incubated.
In FIGS. 13 and 14, the binding complex is pre-formed with Biotin-RFP14 and GST-H6-RAB25 (SEQ ID NO: 86). Soluble competitors were then added after an incubation time (30 min) across a dose range. These competitors are FIP3 (expressed protein), and Trp-labeled derivatives of RFP14, RFP16 and RFP17. After another incubation of 30 min the streptavidin donor beads and Ni-NTA acceptor beads are added and the luminescent signal is measured approximately 30 min later (total of ˜1.5 hr incubation time).

| Molecule | binding affinity to RAB11 (RAB11 [1]) | binding affinity to RAB25 (RAB25 [2]) | theoretical percent helicity [3] | Tm [4] [°C] | cell penetration (U2OS osteosarcoma cells) | relative affinity RAB11 versus RAB25 (selectivity) (RAB25 [5]) | binding to and retention of RAB11 (RAB11 [6]) | binding to and retention of RAB25 (RAB25 [7]) | AKT phosphorylation at S473 [8] | OVCAR3 cellular migration (OVCAR3 cells) | competition for RAB25 binding (IC50) (GST-H6-RAB25) |
| --- | --- | --- | --- | --- | --- | --- | --- | --- | --- | --- | --- |
| RFP14: stapled FIP peptide, SEQ ID NO: 75 (RQVRELENYIDRLLV[S5]VNE[S5]TPNILRIPR; staple 16-20; not fully specified (C-terminus)) | highest binding affinity | highest binding affinity | highest helical content | 64 | lowest cell penetration |  |  |  |  |  |  |
| RFP26: stapled FIP peptide containing an E-R mutation to increase overall charge, SEQ ID NO: 83 (RINFRLQN[S5]IDR[S5]IVRINETNPSILRVK; staple 9-13; not fully specified (C-terminus)) | high affinity | retained binding affinity; also recorded: high affinity |  |  |  | some selectivity for RAB25 | significant binding to and retention | significant binding to and retention | decreased AKT phosphorylation at S473 | inhibited OVCAR3 cellular migration |  |
| B1 |  |  |  |  |  |  |  |  |  |  | significantly higher IC50 |
